This data set is described as follows: yeast display, Sf9 membrane polyspecificity reagent, FACS + sequencing; frameworks hold sequencing errors. Put shortly: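 After 36–48 hours of galactose induction, yeast (Saccharomyces cerevisiae BJ5465) displaying a synthetic nanobody library were stained at 4 °C for 1 hour with 10% biotinylated, detergent-solubilized Sf9 membrane reagent. Streptavidin microbeads enriched the stained cells before FACS sorting into low and high (top ~1%) gates on anti-HA and streptavidin fluorescence. Each clone's polyreactivity label reflects its gate of origin.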
On to “QVQLVESGGGLVQAGGSLRLSCAASGSIFSPYAMGWYRQAPGKERELVAAITDSGGSTYYADSVKGRFTISRDNAKYTVYLQMNSLKPEDTAVYYCAADLRYWSWAFDYWGQGTQVTVSS”, for which the “polyreactivity (PSR sort gate)” value was “low polyreactivity”.

As to “QVQLVESGGGLVQAGGSLRLSCAASGSIFSPYTMGWYRQAPGKERELVAAMSASGGSTYYADSVKGRFTISRDNAKNTVYLQMNSLKPEDTAVYYCNVYRITRHSYNCGFDYWGQGTQVTVSS”, the “polyreactivity (PSR sort gate)” value is “low polyreactivity”.

In the case of “QVQLVESGGGLVQAGGSLRLSCAASGSIFSQYAMGWYRQAPGKERELVAAITYGGGSTYYADSVKGRFTISRDNAKNTVYFQMNSLKPEDTAVYYCAKEFKYWGYPYDYWGQGTQVTVSS”, the “polyreactivity (PSR sort gate)” value is on record as “low polyreactivity”.

Turning to “QVQLVESGGGLVQAGGSLRLSCAASGSIFSQYAMGWYRQAPGKERELVDAITYGGGSTYYADSVKGRFTISRDNAKNTVYLQMNSLKPEDTAVYYCNADGWNTYIGPRRYRYDYWGQGTQVTVSS”, the “polyreactivity (PSR sort gate)” value is “low polyreactivity”.

Take “QVQLVESGGGLVQAGGSLRLSCAASGSIFSRIAMGWYRKAPGKERELVAAISGRGGSTYYADSVKGRFTISRDNAKNTVYLHMKSLKPEDTAVYYCAKAVNYRLSQAMDYWGQGTQVTVSS”: the “polyreactivity (PSR sort gate)” value is on record as “high polyreactivity”.

Turning to “QVQLVESGGGLVQAGGSLRLSCAASGSIFSRNAMGWYRQAPGKEREFVAAISWSGGRTYYADSVKGRFTISRDNAKNTVYLQMNSLKPEDTAVYYCSKGYSYHWYHVTFYSWGQGTQVTVSS”, the “polyreactivity (PSR sort gate)” value is “high polyreactivity”.

In the case of “QVQLVESGGGLVQAGGSLRLSCAASGSIFSRNAMGWYRQAPGKEREFVARISWSSTSTNYADSVKGRFTISRDNAKNPVYLQMNSLKPEDTAVYYCAADFRGDRRFDYWGQGTQVTVSS”, the “polyreactivity (PSR sort gate)” value is given as “low polyreactivity”.

Take “QVQLVESGGGLVQAGGSLRLSCAASGSIFSRNAMGWYRQAPGKERELVAAISRRGGSTYYADSVKGRFTISRDNAKITVYLQMNSLKPEDTAVYYCAAPFEAVRSYYWGQGTQVTVSS”: the “polyreactivity (PSR sort gate)” value was “high polyreactivity”.

Turning to “QVQLVESGGGLVQAGGSLRLSCAASGSIFSRNAMGWYRQAPGKERELVASMSWRGGSTNYADSVKGRFTISRDNAKNTVYLQMNSLKPEDTAVYYCNAPYRHQPGGGYWGQGTQVTVSS”, the “polyreactivity (PSR sort gate)” value is recorded as “low polyreactivity”.

“QVQLVESGGGLVQAGGSLRLSCAASGSIFSRNVMGGSRQAPGKERELVAAITGSGGRTYYADSVKGRFTISRDNAKNTVYLQMNSLKPEDTAVYYCAKSRPGPYDYWGQGTQVTVSS”: the “polyreactivity (PSR sort gate)” value was “high polyreactivity”.

In the case of “QVQLVESGGGLVQAGGSLRLSCAASGSIFSRYAMGWYRQAPGKEMELVAAISSRGGSTSYADSVKGRFTISRDYAKNTVYLQMNSLQPEDTAVYYCGRVYYAGPRLYRDFGFDYWGQGTQVTVSS”, the “polyreactivity (PSR sort gate)” value is on record as “high polyreactivity”.

“QVQLVESGGGLVQAGGSLRLSCAASGSIFSRYAMGWYRQAPGKERELVAAISKSGGTTYYADSVKGRFTISRDNAKNTVYLQMNSLKPEDTAVYYCNAKRYRNGSIGMGYWGQGTQVTVSS”: the “polyreactivity (PSR sort gate)” value is listed as “high polyreactivity”.

On to “QVQLVESGGGLVQAGGSLRLSCAASGSIFSRYTMGWYRQAPGKERELVARINSSGTSTYYADSVQGRFTIARDNAKNTVYLQMNSLKPEDTAVYYCAAQVDTQYWDFDYWGQGTQVTVSS”, for which the “polyreactivity (PSR sort gate)” value is on record as “low polyreactivity”.

On to “QVQLVESGGGLVQAGGSLRLSCAASGSIFSRYTMGWYRQATGKERELVAAITSSGGSTYYADSVKGRFTISRDNAKNTVYLQMNSLKPEDTAVYYCNAVRRQWYWTAWFSARGYGYWGQGTQVTVSS”, for which the “polyreactivity (PSR sort gate)” value is “high polyreactivity”.

As for “QVQLVESGGGLVQAGGSLRLSCAASGSIFSRYTMGWYRQPPGKERELVAAITSSGGRTYYADSVKGRFRISRDNAKNTVYLQLNSLKPVVTAVYYCAARIQKQQGYGYWGQGTQVTVSS”, the “polyreactivity (PSR sort gate)” value was “high polyreactivity”.

As for “QVQLVESGGGLVQAGGSLRLSCAASGSIFSSNAMGWYRQAPGKERELVAAISRRGGSTYYADSVKGRFTISRDNAKNTVYLQMNSLKPEDTAVYYCNAYPWLLSTRYDYWGQGTQVTVSS”, the “polyreactivity (PSR sort gate)” value is on record as “high polyreactivity”.

As for “QVQLVESGGGLVQAGGSLRLSCAASGSIFSSNAMGWYRQAPGKERELVAAISSSGSRTYYADSVKGRFTISRDNAKNTVYLQMNSLKPEDTAVYYCAAVIRYTRSYDYWGQGTQVTVSS”, the “polyreactivity (PSR sort gate)” value is listed as “high polyreactivity”.

In the case of “QVQLVESGGGLVQAGGSLRLSCAASGSIFSSNVMGWYRQAPGKERELVAAITVRGSRTYYADSVKGRFTISRDNAKNTVYLQMNSLKPEDTAVYYCNAVARVLGSDRRLQYYYWGQGTQVTVSS”, the “polyreactivity (PSR sort gate)” value is given as “high polyreactivity”.

As for “QVQLVESGGGLVQAGGSLRLSCAASGSIFSSYAMGWYRQAPGKERELVAAISGSGGSTFYADSVKGRFTISRDNAKNTVYLQMNSLKPEDTAVYYCAARYYWYGRAGKKHASYYYWGQGTQVTVSS”, the “polyreactivity (PSR sort gate)” value is on record as “high polyreactivity”.

As to “QVQLVESGGGLVQAGGSLRLSCAASGSIFSSYAMGWYRQAPGKERELVAAISQNGGSTDYADSVKGRFTISRDKAKNTVYLQMNSLKPEDTAVYYCNAYSVYVRGEYWGQGTQVTVSS”, the “polyreactivity (PSR sort gate)” value is “high polyreactivity”.

Regarding “QVQLVESGGGLVQAGGSLRLSCAASGSIFSSYAMGWYRQAPGKERELVAAITRTGGRTYYADSVKGRFTISRDNAKNTVYLQMNSLKPEDTAVYYCAAKQVSRGVAAYDYWGQGTQVTVSS”, the “polyreactivity (PSR sort gate)” value is given as “high polyreactivity”.

Take “QVQLVESGGGLVQAGGSLRLSCAASGSIFSSYVMGWYRQAPGKERELVAAISRSGGSTYYADSVKGRFTISRDNAKNTVYLQMNSRKPEDTAFYYCAADWTRGSPGMDYWGQGTQVTVSS”: the “polyreactivity (PSR sort gate)” value is given as “high polyreactivity”.

Take “QVQLVESGGGLVQAGGSLRLSCAASGSIFSSYVMVWYRQAPGKERELVAAISSSGGSTYYADSVKGRFTISRDNAKNTVYLQMNSLKPEDTAVYYCAARSYYSYYLMYYWGQGTQVTVSS”: the “polyreactivity (PSR sort gate)” value is “high polyreactivity”.

Regarding “QVQLVESGGGLVQAGGSLRLSCAASGSIFSTYAMGWYRQAPGKERELVAAIRTWSGGRTYYADSVKGRFTISRDNAKNTVYLQMNSLKPEDTAVYYCAAQFSRYRDYGLNYYYWGQGTQVTVSS”, the “polyreactivity (PSR sort gate)” value was “high polyreactivity”.

Take “QVQLVESGGGLVQAGGSLRLSCAASGSIFSTYAMGWYRQAPGKERELVAAISRSGGSTYYADSVKGRFTISRDNAKNTVFLQMNSLKPEDTAVYYCAKVGRRQRYDYWGQGTQVTVSS”: the “polyreactivity (PSR sort gate)” value is recorded as “high polyreactivity”.

For the sequence “QVQLVESGGGLVQAGGSLRLSCAASGSIFSTYAMGWYRQAPGKERELVAAISSSSGSTYYADSVKGRFTISRDNAKNTVYLQMNSLKPEDTAVYYCAAAYSQYSTSYYYWGQGTQVTVSS”, the “polyreactivity (PSR sort gate)” value was “high polyreactivity”.

With “QVQLVESGGGLVQAGGSLRLSCAASGSIFSTYVMVWYRQAPGKERELVAAITVSVGSTYYADSVKGRFTISRDNAKNTVYLQMNSLKPEDTAVYYCAAYGGTGYPFDAYYHDYDYWGQGTQVTVSS”, the “polyreactivity (PSR sort gate)” value is reported as “low polyreactivity”.

Take “QVQLVESGGGLVQAGGSLRLSCAASGSIFSVYAMGWYRQAPGKERELVAAISRGDSTYYADSVKGRFTISRDNAKNTVYLQMNSLKPEDTAVYYCAKAYLRYYDGPYDYWGQGTQVTVSS”: the “polyreactivity (PSR sort gate)” value is reported as “low polyreactivity”.

For “QVQLVESGGGLVQAGGSLRLSCAASGSIFSVYAMGWYRQAPGKERELVAAITRGGNTYYADSVKGRFTISRDNAKNTVYLQMNSLKPEDTAVYYCNAGPYGRFYYRGLGYWGQGTQVTVSS”, the “polyreactivity (PSR sort gate)” value was “low polyreactivity”.

For “QVQLVESGGGLVQAGGSLRLSCAASGSIFSVYAMGWYSQAPGKEREVVAASTSSGGSTYYADSVKGRFTISRDNAKNTVHFQMNSLKPEDTAVYYCAADKYVRRLSWYRYGYWGQGTQVTVSS”, the “polyreactivity (PSR sort gate)” value is “high polyreactivity”.
